Test results: patent publication US20230392126A1, “TISSUE ORGANOIDS” (priority 2016, published 2023)

Columns and labels:
[1] = Cocaine hydrolysis activity in vitro (clearance assay with conditioned medium)
[2] = Nicotine-induced CPP in GLP1 and GWT mice; format: in vivo, mouse; details: 0.4 mg/kg nicotine i.p., dox food, vs GWT
Method: FIG. 29 mGLP1 expression on nicotine-induced CPP. […] Following 2 free explorations (Pre-test) on day 1, separate groups of GLP1 and GWT mice (n=7 each) received alternative nicotine (0.4 mg/kg) and saline i.p. injections twice daily for the next 4 days, as previously described (Chen et al., 2010; Kong et al., 2011). CPP expression was tested on day 6. Results represent mean±SEM time spent on the drug-paired side minus the saline-paired side. Repeated-measures ANOVA with test days as the within group factor and status of grafting as the between-subject factor were used (Chen et al., 2010; Kong et al., 2011). F value was calculated and Newman-Keuls post-hoc test was performed (Chen et al., 2010; Kong et al., 2011). GLP1 and WT mice were on dox food for the entire duration.
(§1) Following 2 free explorations (Pre-test) on day 1, separate groups of mGLP1 and GWT (n=7 each) received alternative nicotine (0.4 mg/kg) and saline i.p. injections twice daily for the next 4 days, as previously described (Chen et al., Dopamine D1 and D3 receptors are differentially involved in cue-elicited cocaine seeking. J. Neurochem. 114, 530-541 (2010); Kong et al., Activation of dopamine D3 receptors inhibits reward-related learning induced by cocaine. Neurosci. 176, 152-161 (2011)). […] F value was calculated and Newman-Keuls post-hoc test was performed (Chen et al., 2010; Kong et al., 2011). […]

[3] = mGLP1 expression in blood/plasma of grafted mice fed dox food; format: in vivo, mouse
Method: The epidermal progenitor cells were isolated from newborn pups of CD1 or C57BL/6J mice. […] Targeted clones were selected in the medium containing puromycin, and correct incorporation into the Rosa26 locus was confirmed by PCR and southern blots (FIG. 25B). Mouse skin substitute was prepared by seeding the targeted cells to the acellularized newborn dermis and differentiation upon exposure to the air/liquid interphase and the resultant tissues were transplanted to CD1 or C57BL/6J mice (GLP1).
Expression of mGLP1 in GLP1 mice was stable for up to 4 months in the presence of dox (FIG. 25D).
There was a dose-dependent release of GLP1 in plasma (not shown). Expression of mGLP1 in mGLP1 mice was stable for up to 4 months in the presence of dox (FIG. 25D).

[4] = Ethanol-induced CPP in GLP1 and GWT mice; format: in vivo, mouse; details: 2 g/kg ethanol i.p., dox food, vs mock grafted (GWT)
Source text: as §1, with “FIG. 26. mGLP1 expression on ethanol-induced CPP. […] Following” for “Following”, “GLP1” for “mGLP1”, “mice (n=9” for “(n=7”, “ethanol (2 g/kg)” for “nicotine (0.4 mg/kg)”, “(2011)). CPP expression was tested on day 6. Results represent mean±SEM time spent on the drug-paired side minus the saline-paired side.” for “(2011)).”
as §1, with “GLP1” for “mGLP1”, “mice (n=9” for “(n=7”, “ethanol (2 g/kg)” for “nicotine (0.4 mg/kg)”

[5] = tested on: epidermal progenitor cells; experiment: Suicide gene-induced cell death in epidermal progenitor cells upon prodrug treatment; format: cell-based; details: ganciclovir and 5-fluorocytosine, respectively; data not shown
Source text: To test this possibility, a Rosa26 targeting vector encoding phenylalanine ammonia lyase (PAL) (SEQ ID NO: 51) together with inducible “suicide” genes HSV-TK (Herpes Simplex Virus Thymidine Kinase) (SEQ ID NO: 52) and yCD (yeast cytosine deaminase) (SEQ ID NO: 53) was used for epidermal progenitor cell transfection.

B1: mBChE: mouse BChE with similar point mutations (SEQ ID NO: 43) (protein)
chain: MQTQHTKVTQTHFLLWILLLCMPFGKSHTEEDFIITTKTGRVRGLSMPVLGGTVTAFLGIPYAQPPLGSLRFKKPQPLNKWPDIHNATQYANSCYQNIDQAFPGFQGSEMWNPNTNLSEDCLYLNVWIPVPKPKNATVMVWIYGGGFQTGTSSLPVYDGKFLARVERVIVVSMNYRVGALGFLAFPGNPDAPGNMGLFDQQLALQWVQRNIAAFGGNPKSITIFGESSGAASVSLHLLCPQSYPLFTRAILESGSANAPWAVKHPEEARNRTLTLAKFTGCSKENEMEMIKCLRSKDPQEILRNERFVLPSDSALGINFGPTVDGDFLTDMPHTLLQLGKVKKAQILVGVNKDEGTWFLVGGAPGFSKDNDSLITRKEFQEGLNMYFPGVSRLGKEAVLFYYVDWLGEQSPEVYRDALDDVIGDYNIICPALEFTKKFAELENNAFFYFFEHRSSKLPWPEWMGVMHGYEIEFVFGLPLGRRVNYTRAEEIFSRSIMKTWANFAKYGHPNGTQGNSTMWPVFTSTEQKYLTLNTEKSKIYSKLRAPQCQFWRLFFPKVLEMTGDIDETEQEWKAGFHRWSNYMMDWQNQFNDYTSKKESCTAL
modifications: Mouse mutant BChE
[1]
  cocaine hydrolysis activity of conditioned medium: only residual activity in cocaine hydrolysis

B2: mGLP1: Gly8-mutant mGLP1 and mouse IgG-Fc fragment fusion protein (SEQ ID NO: 45), dox-dependent promoter, from skin grafts (protein)
chain: MYRMQLLSCIALSLALVTNSHGEGTFTSDVSSYLEGQAAKEFIAWLVKGRGRSGCKPCICTVPEVSSVFIFPPKPKDVLTITLTPKVTCVVVDISKDDPEVQFSWFVDDVEVHTAQTQPREEQFNSTFRSVSELPIMHQDWLNGKEFKCRVNSAAFPAPIEKTISKTKGRPKAPQVYTIPPPKEQMAKDKVSLTCMITDFFPEDITVEWQWNGQPAENYKNTQPIMDTDGSYFVYSKLNVQKSNWEAGNTFTCSVLHEGLHNHHTEKSLSHSPGK
modifications: mGLP-1 (GLY8 mutant with IgG-Fc fusion)
[2]
  nicotine-induced CPP: attenuated nicotine-induced CPP
[3]; dox food
  time to significantly enhanced levels of mGLP1 in the blood: ≤ 3 days
[3]; in the presence of dox
  duration of stable mGLP1 expression: up to 4 months
[3]; not shown
  release of mGLP1 in plasma vs dox dose: dose-dependent release of mGLP1 in plasma
[4]
  ethanol-induced CPP: attenuated ethanol-induced CPP

B3: yCD: inducible suicide gene, yeast cytosine deaminase (SEQ ID NO: 53), prodrug 5-fluorocytosine (protein)
chain: MVTGGMASKWDQKGMDIAYEEAALGYKEGGVPIGGCLINNKDGSVLGRGHNMRFQKGSATLHGEISTLENCGRLEGKVYKDTTLYTTLSPCDMCTGAIIMYGIPRCVVGENVNFKSKGEKYLQTRGHEVVVVDDERCKKIMKQFIDERPQDWFEDIGE
modifications: misc_feature 1..474 yCD
[5]
  cell death upon prodrug treatment: efficiently induced cell death upon treatment with prodrugs
